Source: US20190062420A1 (Janssen / Centocor, published 2019)

T1: human FcγRIIB (NM_004001) expressed on cells (human, UniProt P31994 43-310)
T1 sequence: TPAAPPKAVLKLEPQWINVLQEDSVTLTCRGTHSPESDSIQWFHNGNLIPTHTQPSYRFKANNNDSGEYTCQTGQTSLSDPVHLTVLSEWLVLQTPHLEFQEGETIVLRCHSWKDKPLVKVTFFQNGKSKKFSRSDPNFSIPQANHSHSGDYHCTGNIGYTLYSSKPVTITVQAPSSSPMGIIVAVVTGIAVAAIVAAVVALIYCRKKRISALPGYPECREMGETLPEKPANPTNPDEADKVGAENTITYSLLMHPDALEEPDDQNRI

T2: human FcγRIIA (NM_021642) expressed on cells (human, UniProt P12318 36-317)
T2 construct: Transiently expressed on Expi293F cells; also used here for FcγRIIA on human macrophages in the ADCP assay; also called Expi293F FcγRIIA; HEK293F cells expressing FcγRIIA
T2 sequence: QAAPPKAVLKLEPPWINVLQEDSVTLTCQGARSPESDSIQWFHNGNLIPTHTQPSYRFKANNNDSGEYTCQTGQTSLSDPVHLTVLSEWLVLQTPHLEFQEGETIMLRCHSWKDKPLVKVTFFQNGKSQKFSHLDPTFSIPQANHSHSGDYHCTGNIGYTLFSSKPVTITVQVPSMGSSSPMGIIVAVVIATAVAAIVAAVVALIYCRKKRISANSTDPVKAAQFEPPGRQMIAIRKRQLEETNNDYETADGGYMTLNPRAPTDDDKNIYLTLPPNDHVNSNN

T3: human OX40 expressed on HEK-Blue: OX40 cells (human, UniProt P43489 29-277)
T3 construct: also called CD134
T3 sequence: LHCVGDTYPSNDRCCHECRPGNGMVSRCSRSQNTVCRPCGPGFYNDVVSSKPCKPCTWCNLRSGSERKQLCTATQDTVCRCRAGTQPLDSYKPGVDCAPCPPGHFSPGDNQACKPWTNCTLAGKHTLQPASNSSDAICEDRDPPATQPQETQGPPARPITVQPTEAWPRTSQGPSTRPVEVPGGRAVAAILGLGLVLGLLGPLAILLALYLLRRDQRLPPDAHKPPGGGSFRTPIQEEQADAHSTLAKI

B1: OX40SF2IgG2sigma_R2BS9_HC-C (bispecific antibody)
heavy: QVQLVQSGAEVKKPGSSVKVSCKASGYTFKDYTMHWVRQAPGQGLEWIGGIYPNNGGSTYNQNFKDRVTLTADKSTSTAYMELSSLRSEDTAVYYCARMGYHGPHLDFDVWGQGTTVTVSSASTKGPSVFPLAPCSRSTSESTAALGCLVKDYFPEPVTVSWNSGALTSGVHTFPAVLQSSGLYSLSSVVTVPSSNFGTQTYTCNVDHKPSNTKVDKTVERKCCVECPPCPAPPAAASSVFLFPPKPKDTLMISRTPEVTCVVVDVSAEDPEVQFNWYVDGVEVHNAKTKPREEQFNSTFRVVSVLTVLHQDWLNGKEYKCKVSNKGLPSSIEKTISKTKGQPREPQVYTLPPSREEMTKNQVSLTCLVKGFYPSDIAVEWESNGQPENNYKTTPPMLDSDGSFFLYSKLTVDKSRWQQGNVFSCSVMHEALHNHYTQKSLSLSPGKGGGGGSGGGGSGGGGSGGGGSLPAPKNLVVSRVTEDSARLSWTAPDAAFDSFWIYYLEYWRGGEAIVLTVPGSERSYDLTGLKPGTEYFVQIHGVKGGQYSYPLSAIFTT
light: DIQMTQSPSSLSASVGDRVTITCKASQDVGAAVAWYQQKPGKAPKLLIYWASTRHTGVPSRFSGSGSGTDFTLTISSLQPEDFATYYCQQYINYPLTFGGGTKVEIKRTVAAPSVFIFPPSDEQLKSGTASVVCLLNNFYPREAKVQWKVDNALQSGNSQESVTEQDSKDSTYSLSSTLTLSKADYEKHKVYACEVTHQGLSSPVTKSFNRGEC
notes: mAbtyrin: anti-OX40 antibody OX40SF2, effector silent IgG2sigma, with linker and R2BS9 FN3 domain at the C-terminus of the heavy chain; also called mAbtyrin
B2: OX40SF2IgG2sigma_R2BS12_HC-C (bispecific antibody)
heavy: QVQLVQSGAEVKKPGSSVKVSCKASGYTFKDYTMHWVRQAPGQGLEWIGGIYPNNGGSTYNQNFKDRVTLTADKSTSTAYMELSSLRSEDTAVYYCARMGYHGPHLDFDVWGQGTTVTVSSASTKGPSVFPLAPCSRSTSESTAALGCLVKDYFPEPVTVSWNSGALTSGVHTFPAVLQSSGLYSLSSVVTVPSSNFGTQTYTCNVDHKPSNTKVDKTVERKCCVECPPCPAPPAAASSVFLFPPKPKDTLMISRTPEVTCVVVDVSAEDPEVQFNWYVDGVEVHNAKTKPREEQFNSTFRVVSVLTVLHQDWLNGKEYKCKVSNKGLPSSIEKTISKTKGQPREPQVYTLPPSREEMTKNQVSLTCLVKGFYPSDIAVEWESNGQPENNYKTTPPMLDSDGSFFLYSKLTVDKSRWQQGNVFSCSVMHEALHNHYTQKSLSLSPGKGGGGGSGGGGSGGGGSGGGGSLPAPKNLVVSRVTEDSARLSWTAPDAAFDSFLIAYAEYWEGGEAVVLTVPGSERSYDLTGLKPGTEYFVQINGVKGGFWSIPLSAIFTT
light: DIQMTQSPSSLSASVGDRVTITCKASQDVGAAVAWYQQKPGKAPKLLIYWASTRHTGVPSRFSGSGSGTDFTLTISSLQPEDFATYYCQQYINYPLTFGGGTKVEIKRTVAAPSVFIFPPSDEQLKSGTASVVCLLNNFYPREAKVQWKVDNALQSGNSQESVTEQDSKDSTYSLSSTLTLSKADYEKHKVYACEVTHQGLSSPVTKSFNRGEC
notes: mAbtyrin: anti-OX40 antibody OX40SF2, effector silent IgG2sigma, with linker and R2BS12 FN3 domain at the C-terminus of the heavy chain; also called mAbtyrin
B3: OX40SF2IgG2sigma_R2BS56_HC-C (bispecific antibody)
heavy: QVQLVQSGAEVKKPGSSVKVSCKASGYTFKDYTMHWVRQAPGQGLEWIGGIYPNNGGSTYNQNFKDRVTLTADKSTSTAYMELSSLRSEDTAVYYCARMGYHGPHLDFDVWGQGTTVTVSSASTKGPSVFPLAPCSRSTSESTAALGCLVKDYFPEPVTVSWNSGALTSGVHTFPAVLQSSGLYSLSSVVTVPSSNFGTQTYTCNVDHKPSNTKVDKTVERKCCVECPPCPAPPAAASSVFLFPPKPKDTLMISRTPEVTCVVVDVSAEDPEVQFNWYVDGVEVHNAKTKPREEQFNSTFRVVSVLTVLHQDWLNGKEYKCKVSNKGLPSSIEKTISKTKGQPREPQVYTLPPSREEMTKNQVSLTCLVKGFYPSDIAVEWESNGQPENNYKTTPPMLDSDGSFFLYSKLTVDKSRWQQGNVFSCSVMHEALHNHYTQKSLSLSPGKGGGGGSGGGGSGGGGSGGGGSLPAPKNLVVSRVTEDSARLSWTAPDAAFDSFSIAYWEYRKGGEAIVLTVPGSERSYDLTGLKPGTEYFVLIYGVKGGWQSKPLSAIFTT
light: DIQMTQSPSSLSASVGDRVTITCKASQDVGAAVAWYQQKPGKAPKLLIYWASTRHTGVPSRFSGSGSGTDFTLTISSLQPEDFATYYCQQYINYPLTFGGGTKVEIKRTVAAPSVFIFPPSDEQLKSGTASVVCLLNNFYPREAKVQWKVDNALQSGNSQESVTEQDSKDSTYSLSSTLTLSKADYEKHKVYACEVTHQGLSSPVTKSFNRGEC
notes: mAbtyrin: anti-OX40 antibody OX40SF2, effector silent IgG2sigma, with linker and R2BS56 FN3 domain at the C-terminus of the heavy chain; also called mAbtyrin

Assays:
[1] = target: T1, human FcγRIIB (NM_004001) expressed on …; test: cell-based or functional assay
[2] = target: T1, human FcγRIIB (NM_004001) expressed on …; test: flow cytometry; Raji cells (express predominantly FcγRIIB)
[3] = target: T2, human FcγRIIA (NM_021642) expressed on …; test: flow cytometry; Expi293F cells transfected with FcγRIIA
Experimental: (§1) Plasmids expressing cDNAs encoding human FcγRI (NM_000566) (SEQ ID NO: 44), FcγRIIA (NM_021642) (SEQ ID NO: 2), FcγRIIB (NM_004001) (SEQ ID NO: 3), and FcγRIIIA (NM_000569) (SEQ ID NO: 45) (Origene) were transiently transfected into Expi293F cells by ExpiFectamine293 transfection kit (Life Technologies). Flow cytometry assays were performed 48 h after transfection.
(§2) 2×10⁵ cells per well were seeded in 96-well plate and blocked in BSA Stain Buffer (BD Biosciences, San Jose, USA) for 30 min at 4° C. Cells were incubated with test mAbtyrin on ice for 1.5 h at 4° C. After being washed twice with BSA stain buffer, the cells were incubated with R-PE labeled anti-human or anti-mouse IgG secondary antibody (Jackson Immunoresearch Laboratories) for 45 min at 4° C. The cells were washed twice in stain buffer and then resuspended in 150 μL of Stain Buffer containing 1:200 diluted DRAQ7 live/dead stain (Cell Signaling Technology, Danvers, USA). PE and DRAQ7 signals of the stained cells were detected by Miltenyi MACSQuant flow cytometer (Miltenyi Biotec, Auburn, USA) using B2 and B4 channel respectively. Live cells were gated on DRAQ7 exclusion and the geometric mean fluorescence signals were determined for at least 10,000 live events collected. FlowJo software (Tree Star) was used for analysis. Data was plotted as the logarithm of antibody concentration versus mean fluorescence signals. Nonlinear regression analysis was performed by GraphPad Prism 6 (GraphPad Software, Inc.) and EC₅₀ values were calculated.

[4] = target: T2, human FcγRIIA (NM_021642) expressed on …; test: cell-based or functional assay
[5] = target: T1, human FcγRIIB (NM_004001) expressed on …; test: flow cytometry; Expi293F cells transfected with FcγRIIB
Experimental: as §1, §2

[6] = target: T1, human FcγRIIB (NM_004001) expressed on …; test: flow cytometry; Raji cells (express predominantly FcγRIIB); remark: listed apart in the source
Experimental: as §2
Raji cell is a cell line derived from B cells that express predominantly FcγRIIB. The binding of mAbtyrins on Raji cells were investigated by flow cytometry assay described for testing mAbtyrin binding to FcγR. Binding of the mAbtyrins were detected by flow cytometry using a PE-labeled Goat F(ab′) against Human IgG(γ).

[7] = target: T3, human OX40 expressed on HEK-Blue: OX40 …; test: flow cytometry; HEK-Blue: OX40 cells
Experimental: as §2
The binding of mAbtyrins on OX40 expressed on cell surface were investigated by flow cytometry assay described for testing mAbtyrin binding to FcγR. A stable HEK-Blue reporter cell line expressing human OX40 (HEK-Blue: OX40) was established by transfection OX40 expression plasmid (pUNO1-hOX40) into HEK-Blue™ Null 1 cells engineered to express a secreted embryonic alkaline phosphatase (SEAP) reporter gene under the control of NF-κB-inducible promoter (IFN-β minimal promoter). mAbtyrins were incubated with HEK-Blue: OX40 cells and the binding was detected by flow cytometry using a PE-labeled Goat F(ab′)₂ against Human IgG(γ).

| Binder | % activity at 1 µg/ml with Raji cells (HEK-Blue: OX40 NF-κB reporter, relative to 1 µg/ml OX40 ligand) [1] | fold of agonism enhancement upon crosslinking (Raji cells) [1] | fold binding signal over OX40SF2IgG2sigma at 10 µg/mL [2] | EC50 [3] | % OX40 cell killed by macrophages (ADCP, 1 µg/ml) [4] | EC50 [5] | Binding to Raji cells mean signals at 10 µg/ml [6] | EC50 [6] | Binding to HEK-Blue: OX40 cells (mean signal at 1 µg/ml) [7] |
| --- | --- | --- | --- | --- | --- | --- | --- | --- | --- |
| B1 | 88.1% | 21 fold | ≥ 6 fold | 0.498 µg/mL | 85% | 1.51 µg/mL | 3260 mean fluorescence signal | > 10 µg/mL | 8900 mean fluorescence signal |
| B2 | 96.3% | 31 fold | ≥ 6 fold | 0.302 µg/mL | 92% | 0.926 µg/mL | 2610 mean fluorescence signal | > 10 µg/mL | 9710 mean fluorescence signal |
| B3 | 107% | 15 fold | ≥ 6 fold | 0.287 µg/mL | 91% | 1.05 µg/mL | 9120 mean fluorescence signal | 9.91 µg/mL | 16900 mean fluorescence signal |
